Results taken from article PMC10945505 (2024).

What was measured:
Assay in all cases: BLI
[1] = molecular target: FZD7 CRD (Homo sapiens)
[2] = molecular target: Human βKlotho (human, UniProt Q86Z14 1-996)
[3] = molecular target: L-αGFP
[4] = molecular target: L-39F7

Kd [1] [nM]	Kd [2] [nM]	Kd [3] [nM]	Kd [4] [nM]	Binder
82.5	11.8	–	–	F-FGF21ΔN (other) QRYLYTDDAQQTEAHLEIREDGTVGGAADQSPESLLQLKALKPGVIQILGVKTSRFLCQRPDGALYGSLHFDPEACSFRERLLEDGYNVYQSEAHGLPLHLPGNKSPHRDPAPRGPARFLPLPGLPPALPEPPGILAPQPPDVGSSDPLSMVGGSQGRSPSYES
92.3	10.1	–	–	F-FGF21FL (other) HPIPDSSPLLQFGGQVRQRYLYTDDAQQTEAHLEIREDGTVGGAADQSPESLLQLKALKPGVIQILGVKTSRFLCQRPDGALYGSLHFDPEACSFRERLLEDGYNVYQSEAHGLPLHLPGNKSPHRDPAPRGPARFLPLPGLPPALPEPPGILAPQPPDVGSSDPLSMVGGSQGRSPSYES
–	–	9.7	6.4	LRP6E3E4 (protein) EAFLLFSRRADIRRISLETNNNNVAIPLTGVKEASALDFDVTDNRIYWTDISLKTISRAFMNGSALEHVVEFGLDYPEGMAVDWLGKNLYWADTGTNRIEVSKLDGQHRQVLVWKDLDSPRALALDPAEGFMYWTEWGGKPKIDRAAMDGSERTTLVPNVGRANGLTIDYAKRRLYWTDLDTNLIESSNMLGLNREVIADDLPHPFGLTQYQDYIYWTDWSRRSIERANKTSGQNRTIIQGHLDYVMDILVFHSSRQSGWNECASSNGHCSHLCLAVPVGGFVCGCPAHYSLNADNRTCSAPTTFLLFSQKSAINRMVIDEQQSPDIILPIHSLRNVRAIDYDPLDKQLYWIDSRQNMIRKAQEDGSQGFTVVVSSVPSQNLEIQPYDLSIDIYSRYIYWTCEATNVINVTRLDGRSVGVVLKGEQDRPRAVVVNPEKGYMYFTNLQERSPKIERAALDGTEREVLFFSGLSKPIALALDSRLGKLFWADSDLRRIESSDLSGANRIVLEDSNILQPVGLTVFENWLYWIDKQQQMIEKIDMTGREGRTKVQARIAQLSDIHAVKELNLQEYRQHPCAQDNGGCSHICLVKGDGTTRCSCPMHLVLLQDELSCGEP
